Reference: patent JP2017086068A (dated 2017)

Target: HA2融合ペプチドFGAIAG (Influenza A virus (A/VN/1194/04))
Test: Pepscan peptide mapping, linear and cyclised peptides of HA A/VN/1194/04

B1: FI6変異体2 (antibody, V domains shown)
VH: QVQLVQSGGGVVQPGRSLRLSCVASGFTFSTYAMHWVRQAPGRGLEWVAVISYDGNYKYYADSVKGRFSISRDNSNNTLHLEMNTLRTEDTALYYCAKDSQLRSLLYFEWLSQGYFDPWGQGTLVTVTS
VL: DIQMTQSPDSLAVSLGARATINCKSSQSVTFNYKNYLAWYQQKPGQPPKVLIYWASARESGVPDRFSGSGSGTDFTLTISSLQAEDVAVYYCQQHYRTPPTFGQGTKVEIK
- binding result: binds
